Measured values: paper PMC9160355
pKd: −log10 of the molar value.

Target: Rho WT (Escherichia coli) (UniProt P0AG30)
Assay: EMSA
Conditions: 25 mM Tris-HCl pH 8.0, 5 mM MgCl2, 50 mM KCl, 1 mM DTT, 0.1 mg/ml BSA; 5 nM RNA, 0-50 nM Rho; 37 °C 5 min; 4% native gel at 4 °C

Chain of Rho WT (Escherichia coli) (P0AG30 whole entry): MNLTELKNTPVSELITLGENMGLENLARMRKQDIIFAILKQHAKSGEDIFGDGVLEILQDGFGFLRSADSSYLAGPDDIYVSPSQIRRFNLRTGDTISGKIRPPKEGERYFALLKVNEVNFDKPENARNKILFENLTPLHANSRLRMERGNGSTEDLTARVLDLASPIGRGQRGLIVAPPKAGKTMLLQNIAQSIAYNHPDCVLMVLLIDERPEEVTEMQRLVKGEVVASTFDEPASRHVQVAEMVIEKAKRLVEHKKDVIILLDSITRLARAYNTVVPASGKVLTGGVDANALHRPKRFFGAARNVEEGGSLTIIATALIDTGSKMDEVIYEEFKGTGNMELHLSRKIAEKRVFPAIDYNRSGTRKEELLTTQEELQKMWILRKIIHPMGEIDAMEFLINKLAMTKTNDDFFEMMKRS

Q: “GGGAGAGCUGCUUGUUUAAAGCUGACUGGUUUUAUUGGAAUAGUGAAAUAGUCAACAUCAUACAUUAUAACAUCAGUUACUUUUCCACAAAGAAACUAAUCCAUUUAAGCGAAUAUCUCUGCACCUAAUAGUUAUAAAUGCCAUUUAACAGCCAGUUAUAGUACCACUUGAAACUAUAUUACCAACAAUAAUUAAUAGCUUUCGUAACAAUUUCCUUAUCUUUAAUUUGUAUUUUGCUAAGAUUUAUCUUAUGCUCACAAGUCGUAUUUCCAGAGGGGGAUAG [gfcA terminator RNA]” was tested. Which pKd did it give?
A: 7.70

Q: How did the pKd turn out when dmsA terminator RNA was run?
A: 7.79

Q: With gfcA terminator RNA as the substance, how does the pKd read?
A: 7.70

Q: With gntX terminator RNA as the substance, how does the pKd read?
A: 7.63

Q: setC terminator RNA was tested. Which pKd did it give?
A: 7.94

Q: How did the pKd turn out when sodA terminator RNA was run?
A: 8.00

Q: With trac (rac) terminator RNA as the substance, how does the pKd read?
A: 8.51

Q: yagM terminator RNA was tested. Which pKd did it give?
A: 7.93

Q: How did the pKd turn out when ycfJ terminator RNA was run?
A: 7.73

Q: How did the pKd turn out when ydeT terminator RNA was run?
A: 7.79

Q: ydhQ terminator RNA was tested. Which pKd did it give?
A: 7.78
